From article PMC4734665

The sequences below were run against WRKY6-His (UniProt Q9C519) (assay: EMSA). Details: EMSA: 20 uL, 0.5 ug protein, 1 uL of 50 ug/mL biotin probe, 2 uL 10x buffer (1x = 10 mM Tris, 50 mM KCl, 1 mM DTT, pH 7.5), 1 uL 1% NP-40, 0.5 uL 1 mg/mL ….
Chain of WRKY6-His (Q9C519 whole entry, the tested form may be a part): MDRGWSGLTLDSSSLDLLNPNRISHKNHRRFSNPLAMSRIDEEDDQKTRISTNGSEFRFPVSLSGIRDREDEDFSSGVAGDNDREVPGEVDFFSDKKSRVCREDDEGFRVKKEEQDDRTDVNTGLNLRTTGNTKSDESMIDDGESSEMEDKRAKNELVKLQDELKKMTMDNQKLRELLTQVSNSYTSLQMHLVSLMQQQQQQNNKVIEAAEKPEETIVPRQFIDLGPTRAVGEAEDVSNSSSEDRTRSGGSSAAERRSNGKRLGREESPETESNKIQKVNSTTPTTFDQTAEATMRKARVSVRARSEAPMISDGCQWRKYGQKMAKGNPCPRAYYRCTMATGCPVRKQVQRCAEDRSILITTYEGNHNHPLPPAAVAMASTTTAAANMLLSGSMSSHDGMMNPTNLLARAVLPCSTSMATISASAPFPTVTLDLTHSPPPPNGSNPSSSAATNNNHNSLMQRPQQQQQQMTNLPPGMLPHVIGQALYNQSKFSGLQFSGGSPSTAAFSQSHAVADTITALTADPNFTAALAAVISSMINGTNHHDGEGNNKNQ
With “GGAAAATTCCTATTTTCCCGATTACATTTTAACACATCAAAATAGGTACTGTGTTTTATAAATCTGAACAAACAATTAGTAATGTTCATACTTTAACATTTAAAAAATTCAAATTATCTACCTCAACTCTTACTTTTGTACATAATTATGAGTCAACGTTAGTTATGGTAATTAACAGTAACGGTTGTTGAATCAGCTAACACTTGTACGTCGAGATGGCATGTTCTTCAAACCAAAT (double strand) [ABI3 promoter fragment]” the binding was “binds”.
In the case of “GATAAGATCGTAAGCTATCCACATCACTTGTTAATTGTCCTCAAACCATATTATATAATGCAAACAATTTATGGCGTTAAATCCTTACGTATTTATTCTCTATAAGAGTAAAACACACACACTGAAGGCAACTGATTTAATTGGATTTCTATACGTCAGTAGAAATACTTGTTATGATGTCGGTCGCTCGTTGGCTAAGTATTTCTTATAAATATATAAGACATATTTAAAATCTTTTTACATTACATACACCCACTTATGAGAAAC (double strand) [RAV1 promoter P2 mutant]”, the binding is reported as “no binding”.
“GATAAGATCGTAAGCTATCCACATCACTTGTTAATTGTCCTCAAACCATATTATATAATGCAAACAATTTATGGCGTTAAATCCTTACGTATTTATTCTCTATAAGAGTAAAACACACACACTGAAGGCAACTGATTTAATTGGATTTCTATTGACCAGTAGAAATACTTGTTATGATGTCGGTCGCTCGTTGGCTAAGTATTTCTTATAAATATATAAGACATATTTAAAATCTTTTTACATTACATACACCCACTTATGAGAAAC (double strand) [RAV1 promoter P2]” was tested, and the binding was “binds”.
